This assay concerns the target T1, ENaC containing the βS518C mutant (Rattus norvegicus, UniProt P37089+P37090+P37091, S518C).
T1 construct: expressed in transfected cells; host or cells: Xenopus oocytes
T1 sequence (P37089 1-698): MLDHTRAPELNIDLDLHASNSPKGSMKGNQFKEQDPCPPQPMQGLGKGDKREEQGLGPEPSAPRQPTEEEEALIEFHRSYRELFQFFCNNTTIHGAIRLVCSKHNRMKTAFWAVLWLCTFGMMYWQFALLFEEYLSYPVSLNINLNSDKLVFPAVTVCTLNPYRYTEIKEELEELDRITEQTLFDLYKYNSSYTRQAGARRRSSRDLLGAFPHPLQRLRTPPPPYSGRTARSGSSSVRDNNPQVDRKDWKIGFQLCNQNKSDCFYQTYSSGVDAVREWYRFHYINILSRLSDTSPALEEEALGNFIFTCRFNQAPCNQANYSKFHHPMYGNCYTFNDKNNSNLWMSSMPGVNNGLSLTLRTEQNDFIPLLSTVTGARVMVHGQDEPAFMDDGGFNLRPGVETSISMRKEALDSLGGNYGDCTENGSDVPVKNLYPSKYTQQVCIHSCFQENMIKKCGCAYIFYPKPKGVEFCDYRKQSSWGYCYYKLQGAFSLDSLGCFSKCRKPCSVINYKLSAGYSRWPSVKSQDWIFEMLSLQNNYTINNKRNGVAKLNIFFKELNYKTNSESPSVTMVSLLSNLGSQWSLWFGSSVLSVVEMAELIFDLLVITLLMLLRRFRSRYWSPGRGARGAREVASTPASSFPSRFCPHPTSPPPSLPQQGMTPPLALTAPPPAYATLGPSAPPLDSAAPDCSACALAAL
T1 sequence (P37090 1-638 S518C): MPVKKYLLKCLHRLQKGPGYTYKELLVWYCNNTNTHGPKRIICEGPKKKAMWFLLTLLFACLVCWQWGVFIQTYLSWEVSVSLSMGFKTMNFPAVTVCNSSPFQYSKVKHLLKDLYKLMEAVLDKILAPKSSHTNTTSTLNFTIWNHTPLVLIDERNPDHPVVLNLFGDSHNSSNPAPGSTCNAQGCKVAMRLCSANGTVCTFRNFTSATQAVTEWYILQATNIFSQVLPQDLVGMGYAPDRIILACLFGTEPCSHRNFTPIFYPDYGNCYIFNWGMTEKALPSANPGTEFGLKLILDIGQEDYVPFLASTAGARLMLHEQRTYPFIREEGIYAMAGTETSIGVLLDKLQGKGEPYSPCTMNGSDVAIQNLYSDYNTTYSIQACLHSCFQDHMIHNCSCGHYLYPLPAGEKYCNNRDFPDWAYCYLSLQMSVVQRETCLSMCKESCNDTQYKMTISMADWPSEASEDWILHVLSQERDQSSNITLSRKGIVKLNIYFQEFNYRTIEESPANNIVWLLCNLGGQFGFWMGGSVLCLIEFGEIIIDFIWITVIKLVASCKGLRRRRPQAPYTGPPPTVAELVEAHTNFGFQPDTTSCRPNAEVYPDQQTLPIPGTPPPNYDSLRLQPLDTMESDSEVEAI
T1 sequence (P37091 1-650): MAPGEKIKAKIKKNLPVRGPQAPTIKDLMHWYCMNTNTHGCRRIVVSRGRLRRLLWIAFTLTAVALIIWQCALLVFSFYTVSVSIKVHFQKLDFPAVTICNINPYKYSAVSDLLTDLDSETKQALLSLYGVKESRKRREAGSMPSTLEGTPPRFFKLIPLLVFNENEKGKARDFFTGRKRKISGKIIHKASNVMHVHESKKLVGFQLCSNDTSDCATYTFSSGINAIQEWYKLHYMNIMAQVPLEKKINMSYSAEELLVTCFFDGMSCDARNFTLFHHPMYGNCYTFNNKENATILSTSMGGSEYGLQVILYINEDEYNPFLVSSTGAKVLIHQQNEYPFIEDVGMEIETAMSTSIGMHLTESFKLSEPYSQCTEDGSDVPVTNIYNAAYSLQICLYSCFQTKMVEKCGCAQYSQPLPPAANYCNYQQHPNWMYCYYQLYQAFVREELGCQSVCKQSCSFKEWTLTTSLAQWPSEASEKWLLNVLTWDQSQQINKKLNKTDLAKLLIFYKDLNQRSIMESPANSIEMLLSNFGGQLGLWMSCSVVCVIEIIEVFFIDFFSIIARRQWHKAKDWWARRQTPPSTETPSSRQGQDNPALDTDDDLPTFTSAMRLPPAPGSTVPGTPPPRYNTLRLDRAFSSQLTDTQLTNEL
The assay can be described thus: Oocyte current of ENaC containing the βS518C mutant with MTSET. It is filed as cell-based. Particulars: SPLUNC1 coexpression, n=6. How it is done: Oocyte studies. Xenopus laevis oocytes were harvested and injected as described (Donaldson, et al., J. Biol. Chem. 277:8338 (2002)). Defolliculated healthy stage V-VI oocytes were injected with 0.3 ng of cRNA of each ENaC subunit. Injected oocytes were kept in modified Barth's saline (in mM: 88 NaCl, 1 KCl, 2.4 NaHCO3, 0.3 Ca(NO3)2, 0.41 CaCl2, 0.82 MgSO4, and 15 HEPES, adjusted to pH 7.35 with Tris). Oocytes were studied 24 hr after injection using the two electrode voltage clamp technique as previously described (Donaldson, et al., J. Biol. Chem. 277:8338 (2002)). Oocytes were clamped at a holding potential of […]. The change in amiloride-sensitive whole cell current as an indicator of ENaC activity was determined by subtracting the corresponding current value measured in the presence of 10 μM amiloride from that measured before the application of amiloride.
The effect of SPLUNC1 on the number of ENaC channels in the plasma membrane was tested by expressing SPLUNC1 and αENaC in Xenopus oocytes. After surface biotinylation of αENaC, total lysate was prepared and lysate from 3-4 eggs was separated on a 10% gel.

B1: SPLUNC1: human SPLUNC1, 256 amino acid secreted PLUNC protein (SEQ ID NO:1); rSPLUNC1 = V5/6His-tagged protein purified from HEK293 media (protein, listed as Homo sapiens)
chain: MFQTGGLIVFYGLLAQTMAQFGGLPVPLDQTLPLNVNPALPLSPTGLAGSLTNALSNGLLSGGLLGILENLPLLDILKPGGGTSGGLLGGLLGKVTSVIPGLNNIIDIKVTDPQLLELGLVQSPDGHRLYVTIPLGIKLQVNTPLVGASLLRLAVKLDITAEILAVRDKQERIHLVLGDCTHSPGSLQISLLDGLGPLPIQGLLDSLTGILNKVLPELVQGNVCPLVNEVLRGLDITLVHDIVNMLIHGLQFVIKV
modifications: V5/6His tag
notes: rSPLUNC1 = V5/6His-tagged protein purified from HEK293 media
For the molecule B1, the “overall current with MTSET” value is “still reduced”.

Source of the values: patent US9549967B2, “Regulation of sodium channels by PLUNC proteins” (The University of North Carolina at Chapel Hill, priority 2009, dated 2017).
